Experimental data from US20240377400A1, “METHODS FOR TREATING A SUBTYPE OF COLORECTAL CANCER” (Cornell University, priority 2021, published 2024).

Tests used:
[1] = test system: MTO-sgPrkci/sgPrkcz tumors; assay: Subcutaneous MTO-sgPrkci/sgPrkcz tumors in syngeneic C57BL/6J mice treated with PEGPH20; format: in vivo, mouse
Procedure: (§1) FIGS. 8F-8J illustrate subcutaneous injection of sgPrkci/Prkcz and sgC MTOs in WT mice. Mice were treated twice a week with Veh or PEGPH20 0.0375 mg/kg for 3 weeks (MTOs: sgC n=10, sgC PEGPH20-treated n=10, sgPrkci/Prkcz n=10, and sgPrkci/Prkcz PEGPH20-treated n=8). Experimental design (F); Immunohistochemistry (IHC) for HA, Masson's trichrome, and αSMA (G) staining quantification (H); tumor volume (I) and tumor weight (J). Scale bars, 100 μm.
(§2) For colonoscopy-guided orthotopic injection in the colon submucosa using mouse tumor organoids (MTOs), a 10 μl organoid suspension of equivalent to 40-50 MTOs admixed with 10% Matrigel (Corning) was directly injected into the colonic submucosa of 7 weeks old C57BL/6 mice. 4 weeks after implantation, tumors were collected and analyzed histologically. Orthotopic tumor sizes were measured by caliper after mice were sacrificed. For xenografts using MTOs, a 100 μl cell suspension of equivalent to 0.5×10^6 cells of sgPrkci/Prkcz or sgC MTOs admixed with 30% Matrigel (Corning) was directly injected subcutaneously into the right flank of 7 weeks old C57BL/6 mice. Tumors were allowed to grow for 14 days, and mice were randomly divided to receive vehicle, n=20, or PEGPH20 (0.0375 mg/kg, 2 days each week) via retro-orbital injection, n=18. Tumors were measured twice a week. Mice were euthanized three weeks after treatment and tumors were analyzed histologically. For the combination therapy of anti-PD-L1 (Clone B7-H1, Bioxcell) antibody and PEGPH20, mice were injected with a dose of 5 mg/kg (body mass) of anti-PD-L1 antibody in combination with PEGPH20 (n=15) twice a week for 4 weeks until they were sacrificed.
To address the potential role of HA stromal accumulation in the tumorigenesis of intestinal mesenchymal tumors in vivo, mouse tumor organoids (MTO) with mutations in Apc, Trp53, Kras, and Tgfbr2 (Tauriello et al., 2018) and with deletion of Prkci and Prkcz by CRISPR/Cas9 were characterized. MTO-sgPrkci/sgPrkcz recapitulated the observed phenotype in human organoids showing in vitro upregulation of Has1, Has2, and Has3 transcripts, increased expression of HA, and enrichment in EMT and TGFβ signaling signatures (FIGS. 8A-8E). […] Next, the impact of depleting HA on tumorigenesis was tested. To that end, MTO-sgPrkci/sgPrkcz or MTO-sgC were subcutaneously transplanted into syngeneic C57BL/6J mice and treated with a low dose of clinical-grade pegylated hyaluronidase (PEGPH20; 0.0375 mg/Kg), equivalent to a human dose evaluated in clinical trials, or with vehicle (FIG. 8F).

MTO-sgC tumors = assay: Subcutaneous MTO-sgC control tumors in syngeneic C57BL/6J mice treated with PEGPH20; format: in vivo, mouse; details: PEGPH20 0.0375 mg/Kg twice a week, 3 weeks
Procedure: as §1
as §2, with “Tumors were allowed to grow for 14 days, and mice were randomly divided to receive vehicle, n=20, or PEGPH20 (0.0375 mg/kg, 2 days each week) via retro-orbital injection, n=18.” left out, “For the combination therapy of anti-PD-L1 (Clone B7-H1, Bioxcell) antibody and PEGPH20, mice were injected with a dose of 5 mg/kg (body mass) of anti-PD-L1 antibody in combination with PEGPH20 (n=15) twice a week for 4 weeks until they were sacrificed.” left out

B1: PEGPH20: a PEGylated version of human recombinant PH20 hyaluronidase; clinical-grade pegylated hyaluronidase (Halozyme Therapeutics) (protein, UniProt P38567 36-490, looked up)
Hyaluronidase PH-20: LNFRAPPVIPNVPFLWAWNAPSEFCLGKFDEPLDMSLFSFIGSPRINATGQGVTIFYVDRLGYYPYIDSITGVTVNGGIPQKISLQDHLDKAKKDITFYMPVDNLGMAVIDWEEWRPTWARNWKPKDVYKNRSIELVQQQNVQLSLTEATEKAKQEFEKAGKDFLVETIKLGKLLRPNHLWGYYLFPDCYNHHYKKPGYNGSCFNVEIKRNDDLSWLWNESTALYPSIYLNTQQSPVAATLYVRNRVREAIRVSKIPDAKSPLPVFAYTRIVFTDQVLKFLSQDELVYTFGETVALGASGIVIWGTLSIMRSMKSCLLLDNYMETILNPYIINVTLAAKMCSQVLCQEQGVCIRKNWNSSDYLHLNPDNFAIQLEKGGKFTVRGKPTLEDLEQFSEKFYCSCYSTLSCKEKADVKDTDAVDVCIADGVCIDAFLKPPMETEEPQIFYNASPSTLS
modifications: PEGylated
signatures related to invasion, tumor progression, and desmoplasia (EMT, myogenesis, angiogenesis, TGFβ signaling, stromal activation, CMS4 subtype) ([1]; GSEA of Quant-seq, treated versus Veh): decrease | IFN and allograft rejection signatures ([1]; GSEA of RNAseq, allografts from MTO-sgPrkci/sgPrkcz): enrichment | tumor volume and weight ([1]; PEGPH20 0.0375 mg/Kg twice a week, 3 weeks): sensitive | desmoplastic phenotype: expression of HA, collagen, and αSMA+ ([1]; PEGPH20 0.0375 mg/Kg twice a week, 3 weeks, IHC): reverted | growth properties of MTO-sgC tumors (MTO-sgC tumors): did not affect
